± gives the standard deviation of the averaged measurements.
Assay: total protein half-life in vivo (active degradation + dilution); higher = more stable protein
[1] = E. coli NCM3722 delta-clpP delta-lon delta-hslV, growth: N-lim chemostat, doubling time 6 h
[2] = wild type E. coli NCM3722, growth: C-lim chemostat, doubling time 3 h
[3] = wild type E. coli NCM3722, growth: C-lim chemostat, doubling time 12 h
[4] = E. coli NCM3722 delta-clpP, growth: N-lim chemostat, doubling time 6 h
[5] = E. coli NCM3722 delta-smpB, growth: N-lim chemostat, doubling time 6 h
[6] = wild type E. coli NCM3722, growth: C-lim chemostat, doubling time 6 h
[7] = wild type E. coli NCM3722, growth: N-lim chemostat, doubling time 6 h
[8] = wild type E. coli NCM3722, growth: N-lim chemostat, doubling time 12 h
[9] = wild type E. coli NCM3722, growth: P-lim chemostat, doubling time 6 h
[10] = wild type E. coli NCM3722, growth: P-lim chemostat, doubling time 12 h

| Sequence | total protein half-life in vivo [1] [h] | total protein half-life in vivo [2] [h] | total protein half-life in vivo [3] [h] | total protein half-life in vivo [4] [h] | total protein half-life in vivo (E. coli NCM3722 delta-hslV, growth: N-lim chemostat, doubling time 6 h) [h] | total protein half-life in vivo (E. coli NCM3722 delta-lon, growth: N-lim chemostat, doubling time 6 h) [h] | total protein half-life in vivo [5] [h] | total protein half-life in vivo [6] [h] | total protein half-life in vivo [7] [h] | total protein half-life in vivo [8] [h] | total protein half-life in vivo [9] [h] | total protein half-life in vivo [10] [h] |
| --- | --- | --- | --- | --- | --- | --- | --- | --- | --- | --- | --- | --- |
| MNQVAVVIGGGQTLGAFLCHGLAAEGYRVAVVDIQSDKAANVAQEINAEYGESMAYGFGADATSEQSVLALSRGVDEIFGRVDLLVYSAGIAKAAFISDFQLGDFDRSLQVNLVGYFLCAREFSRLMIRDGIQGRIIQINSKSGKVGSKHNSGYSAAKFGGVGLTQSLALDLAEYGITVHSLMLGNLLKSPMFQSLLPQYATKLGIKPDQVEQYYIDKVPLKRGCDYQDVLNMLLFYASPKASYCTGQSINVTGGQVMF | 4.14 | 1.19 ± 0.41 | 1.43 |  |  |  |  |  |  |  |  |  |
| MNRTILVPIDISDSELTQRVISHVEEEAKIDDAEVHFLTVIPSLPYYASLGLAYSAELPAMDDLKAEAKSQLEEIIKKFKLPTDRVHVHVEEGSPKDRILELAKKIPAHMIIIASHRPDITTYLLGSNAAAVVRHAECSVLVVR | 5.69 ± 1.3 | 3.61 ± 0.042 | 10.3 ± 1.1 | 4.76 ± 0.38 | 6.17 ± 2.1 | 3.98 ± 0.51 | 4.47 ± 0.24 | 5.75 ± 0.62 | 4.7255 ± 0.0038 | 7.83 ± 0.48 | 5.521 ± 0.026 | 9.62 ± 1 |
| MNRWENIQLTHENRLAPRAYFFSYDSVAQARTFARETSSLFLPLSGQWNFHFFDHPLQVPEAFTSELMADWGHITVPAMWQMEGHGKLQYTDEGFPFPIDVPFVPSDNPTGAYQRIFTLSDGWQGKQTLIKFDGVETYFEVYVNGQYVGFSKGSRLTAEFDISAMVKTGDNLLCVRVMQWADSTYVEDQDMWWSAGIFRDVYLVGKHLTHINDFTVRTDFDEAYCDATLSCEVVLENLAASPVVTTLEYTLFDGERVVHSSAIDHLAIEKLTSASFAFTVEQPQQWSAESPYLYHLVMTLKDANGNVLEVVPQRVGFRDIKVRDGLFWINNRYVMLHGVNRHDNDHRKGRAVGMDRVEKDLQLMKQHNINSVRTAHYPNDPRFYELCDIYGLFVMAETDVESHGFANVGDISRITDDPQWEKVYVERIVRHIHAQKNHPSIIIWSLGNESGYGCNIRAMYHAAKALDDTRLVHYEEDRDAEVVDIISTMYTRVPLMNEFGEYPHPKPRIICEYAHAMGNGPGGLTEYQNVFYKHDCIQGHYVWEWCDHGIQAQDDHGNVWYKFGGDYGDYPNNYNFCLDGLIYSDQTPGPGLKEYKQVIAPVKIHARDLTRGELKVENKLWFTTLDDYTLHAEVRAEGETLATQQIKLRDVAPNSEAPLQITLPQLDAREAFLNITVTKDSRTRYSEAGHPIATYQFPLKENTAQPVPFAPNNARPLTLEDDRLSCTVRGYNFAITFSKMSGKPTSWQVNGESLLTREPKINFFKPMIDNHKQEYEGLWQPNHLQIMQEHLRDFAVEQSDGEVLIISRTVIAPPVFDFGMRCTYIWRIAADGQVNVALSGERYGDYPHIIPCIGFTMGINGEYDQVAYYGRGPGENYADSQQANIIDIWRSTVDAMFENYPFPQNNGNRQHVRWTALTNRHGNGLLVVPQRPINFSAWHYTQENIHAAQHCNELQRSDDITLNLDHQLLGLGSNSWGSEVLDSWRVWFRDFSYGFTLLPVSGGEATAQSLASYEFGAGFFSTNLHSENKQ |  | 3.17 ± 0.0082 | 12.4 ± 2 |  |  |  |  | 5.26 ± 0.23 |  |  |  |  |
| MNSCDFRVFLQEFGTTVHLSLPGSVSEKERLLLKLLMQGMSVTEISQYRNRSAKTISHQKKQLFEKLGIQSDITFWRDIFFQYNPEIISATGSNSHRYINDNHYHHIVTPEAISLALENHEFKPWIQPVFCAQTGVLTGCEVLVRWEHPQTGIIPPDQFIPLAESSGLIVIMTRQLMKQTADILMPVKHLLPDNFHIGINVSAGCFLAAGFEKECLNLVNKLGNDKIKLVLELTERNPIPVTPEARAIFDSLHQHNITFALDDFGTGYATYRYLQAFPVDFIKIDKSFVQMASVDEISGHIVDNIVELARKPGLSIVAEGVETQEQADLMIGKGVHFLQGYLYSPPVPGNKFISEWVMKAGG | 6.19 ± 0.079 | 3.346 ± 0.027 | 10.4 ± 2.6 | 5.64 ± 0.26 |  |  | 5.76 ± 0.27 | 5.06 ± 0.71 | 5.94 ± 0.41 | 10.9 ± 0.36 | 5.76 ± 0.1 | 12.3 ± 1.1 |
| MNSKKLCCICVLFSLLAGCASESSIDEKKKKAQVTQSNINKNTPQQLTDKDLFGNETTLAVSEEDIQAALDGDEFRVPLNSPVILVQSGNRAPETIMQEEMRKYYTVSTFSGIPDRQKPLTCNKNKDKNENEDVASAENMNWMQALRFVAAKGHQKAIIVYQDMLQTGKYDSALKSTVWSDYKNDKLTDAISLRYLVRFTLVDVATGEWATWSPVNYEYKVLPPLPDKNEASTTDMTEQQIMQLKQKTYKAMVKDLVNRYQ |  |  |  |  |  |  | 2.44 |  |  |  |  |  |

From the supplement of paper PMC11246515
